B1: Protein PTHB1 (Homo sapiens), Q3SYG4 (parent)
chain: MSLFKARDWWSTILGDKEEFDQGCLCLANVDNSGNGQDKIIVGSFMGYLRIFSPHPAKTGDGAQAEDLLLEVDLRDPVLQVEVGKFVSGTEMLHLAVLHSRKLCVYSVSGTLGNVEHGNQCQMKLMYEHNLQRTACNMTYGSFGGVKGRDLICIQSMDGMLMVFEQESYAFGRFLPGFLLPGPLAYSSRTDSFLTVSSCQQVESYKYQVLAFATDADKRQETEQQKLGSGKRLVVDWTLNIGEQALDICIVSFNQSASSVFVLGERNFFCLKDNGQIRFMKKLDWSPSCFLPYCSVSEGTINTLIGNHNNMLHIYQDVTLKWATQLPHIPVAVRVGCLHDLKGVIVTLSDDGHLQCSYLGTDPSLFQAPNVQSRELNYDELDVEMKELQKIIKDVNKSQGVWPMTEREDDLNVSVVVSPNFDSVSQATDVEVGTDLVPSVTVKVTLQNRVILQKAKLSVYVQPPLELTCDQFTFEFMTPDLTRTVSFSVYLKRSYTPSELEGNAVVSYSRPTDRNPDGIPRVIQCKFRLPLKLICLPGQPSKTASHKITIDTNKSPVSLLSLFPGFASQSDDDQVNVMGFHFLGGARITVLASKTSQRYRIQSEQFEDLWLITNELILRLQEYFEKQGVKDFACSFSGSIPLQEYFELIDHHFELRINGEKLEELLSERAVQFRAIQRRLLARFKDKTPAPLQHLDTLLDGTYKQVIALADAVEENQGNLFQSFTRLKSATHLVILLIALWQKLSADQVAILEAAFLPLQEDTQELGWEETVDAAISHLLKTCLSKSSKEQALNLNSQLNIPKDTSQLKKHITLLCDRLSKGGRLCLSTDAAAPQTMVMPGGCTTIPESDLEERSVEQDSTELFTNHRHLTAETPRPEVSPLQGVSE
partner: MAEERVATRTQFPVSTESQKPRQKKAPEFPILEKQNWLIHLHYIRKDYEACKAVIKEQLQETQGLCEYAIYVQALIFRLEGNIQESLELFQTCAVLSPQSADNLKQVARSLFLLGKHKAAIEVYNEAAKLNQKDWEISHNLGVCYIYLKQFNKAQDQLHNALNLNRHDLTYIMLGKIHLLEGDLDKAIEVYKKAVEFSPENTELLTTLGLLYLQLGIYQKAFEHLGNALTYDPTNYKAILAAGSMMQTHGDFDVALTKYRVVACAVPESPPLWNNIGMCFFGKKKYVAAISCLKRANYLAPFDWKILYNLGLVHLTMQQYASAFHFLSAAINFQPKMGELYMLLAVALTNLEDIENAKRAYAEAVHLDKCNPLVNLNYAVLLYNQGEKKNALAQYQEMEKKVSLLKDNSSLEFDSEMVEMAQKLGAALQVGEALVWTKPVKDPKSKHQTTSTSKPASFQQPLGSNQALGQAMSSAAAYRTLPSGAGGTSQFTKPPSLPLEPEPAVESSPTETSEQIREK

Variants of: B1
Details: with bbs4_human BBS4, Q96RK4

Variant	effect of a mutation on the interaction
V444I	disrupting interaction strength
P463A	with no effect
T697E	with no effect
T697K	with no effect
V885E	with no effect
I523A	with no effect
G659D	disrupting interaction strength
R528A	with no effect
T441K	with no effect
L825E	with no effect
D573E	with no effect
S458K	with no effect
L562E	with no effect
S545K	with no effect
D572E	with no effect
A633E	with no effect
V489E	with no effect
Q574A	with no effect
E654A	disrupting interaction strength
Q569A	with no effect
S498E	with no effect
F724E	disrupting interaction strength
F724K	with no effect

Variant	effect of a mutation on the interaction
L529P	disrupting interaction strength
S777K	with no effect
S777E	disrupting interaction strength
T731K	with no effect
D650E	with no effect
D650A	with no effect
I534K	with no effect
N614E	with no effect
A775K	with no effect
A775E	with no effect
C826K	with no effect
L536A	with no effect
I676A	with no effect
C535A	with no effect
S418E	with no effect
S507E	with no effect
S507K	with no effect
R407A	with no effect
L642A	with no effect
D435A	with no effect
L699E	with no effect
G433A	with no effect
C634K	with no effect

Variant	effect of a mutation on the interaction
F527E	with no effect
F527K	with no effect
F476E	with no effect
L620E	with no effect
R679W	disrupting interaction strength
I451A	with no effect
M839A	disrupting interaction strength
T549A	with no effect
Y599K	with no effect
V416K	with no effect
T813A	with no effect
V629E	with no effect
P497E	with no effect
S603A	with no effect
V430K	with no effect
S596K	with no effect
S596A	with no effect
A586K	with no effect
S423E	with no effect
E501A	with no effect
S886E	with no effect
I617K	with no effect
E761A	with no effect

Variant	effect of a mutation on the interaction
A750E	with no effect
A754K	with no effect
I649A	with no effect
I649E	with no effect
V590A	with no effect
L759A	with no effect
Q677A	with no effect
F566A	with no effect
K456A	with no effect
M578K	with no effect
M578A	with no effect
A730K	with no effect
Q462K	with no effect
L827K	with no effect
L727P	disrupting interaction strength
N800K	with no effect
T478A	with no effect
S860A	with no effect
T613K	with no effect
T613A	with no effect
